# Molecular target: the molecule itself
# Test: SEC; HiLoad 16/600 Superdex 75 pg, 20 mmol/L Tris-HCl pH 8.0, 500 mmol/L NaCl, 1 ml/min; size by Gel Filtration Standard (Bio-Rad)
protein,measurement,value
"recombinant Neisseria gonorrhoeae sedoheptulose-7-phosphate isomerase GmhA, untagged (rGmhAGC) (enzyme, Neisseria gonorrhoeae FA1090, UniProt Q5F5E3 1-197, looked up, GmhA (sedoheptulose-7-phosphate isomerase) of N. gonorrhoeae FA1090, encoded by ngo1986; 197 amino acids, predicted mass 21.093 kDa; ngo1986 amplified without its stop codon and cloned into NcoI/HindIII of pRSF-NT; His tag removed by TEV protease; also called NGO1986; 6 × His-tag-free rGmhAGC; source: E. coli BL21(DE3), purified (IMAC, TEV cleavage, Ni-NTA); not shown: His6, N-terminal, cleaved) MTTLQERVAAHFAESIRAKQEAEKILVEPTVQAAELMLQCLMNDGKILACGNGGSAADAQHFAAEMTGRFEKERMELAAVALTTDTSALTAIGNDYGFDHVFSKQVRALGRAGDVLVGISTSGNSANVIEAVKAAHERDMHVIALTGRDGGKIAAMLKDTDVLLNVPHPRTARIQENHILLIHAMCDCIDSVLLEGM",stoichiometry N,4

# Reference: PMC5387315, “Functional and structural studies on the Neisseria gonorrhoeae GmhA, the first enzyme in the glycero‐manno‐heptose biosynthesis pathways, demonstrate a critical role in lipooligosaccharide synthesis and gonococcal viability” (MicrobiologyOpen, 2017)
